Test results from patent US20230055235, “ANTI-CANCER IMMUNOTHERAPEUTIC COMPOSITION FOR TREATING CANCER” (INTEROLIGO CORPORATION., published 2023).

Target: PD-L1 (programmed death-ligand 1) (UniProt Q9NZQ7 Q9NZQ7:19-238)
Assay: inhibition; PD-1/PD-L1 binding ELISA
Protocol: PD-1/PD-L1 binding inhibition of the synthetic fragment aptamer was determined by conducting a purified protein-based test. Purified protein-based PD-1/PD-L1 binding inhibition test (BPS, USA) was conducted by ELISA method based on horseradish peroxidase (HRP). First, purified PD-L1 protein according to the product manual was fixed on a 96 well plate, and then each well was washed with Immuno Buffer 1 for a total of 3 times in order to remove unbound PD-L1 protein. Aptamers were prepared in a selection buffer for each experimental concentration and slowly cooled from 95° C. to 37° C. by 0.1° C. per second. 5 μL of the aptamer was added to the well to which PD-L1 protein was fixed, followed by adding 20 μL of Biotin-bound PD-1 protein prepared according to the corresponding instructions to each well again. […] After adding 100 μL of the HRP substrate mixture to the well, from which the supernatant was removed, a fluorescent intensity was measured using a luminometer so as to determine the inhibition of PD-1/PD-L1 binding. IC₅₀ (50% inhibitory concentration) was calculated using the online tool.
Aptamer PD-1/PD-L1 binding inhibitory activity described in Table 6 of Example 1.3.1 was measured in the same manner as in Example 1.2.2.

Sequence of PD-L1 (programmed death-ligand 1) (Q9NZQ7 19-238, one chain of several): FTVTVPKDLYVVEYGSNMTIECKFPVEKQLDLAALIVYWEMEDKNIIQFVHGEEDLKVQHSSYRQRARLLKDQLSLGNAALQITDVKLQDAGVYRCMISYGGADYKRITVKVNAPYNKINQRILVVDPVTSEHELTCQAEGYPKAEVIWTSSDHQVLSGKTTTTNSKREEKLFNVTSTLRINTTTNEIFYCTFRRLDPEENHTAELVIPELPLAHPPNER

Binder: AAGTTTTTGATTGTACCTTAGTG (ssDNA, Bz-dU at every n) [PL021]
- IC50: 27.7 nM
